Measurements reported in patent publication US9556424B2, “1-deoxy-D-xylulose 5-phosphate synthase alleles responsible for enhanced terpene biosynthesis” (GENOPLANTE-VALOR, priority 2010, dated 2017).

Columns and labels:
tobacco leaves = experiment: Agrobacterium-mediated transient co-expression of GES and DXS alleles in tobacco leaves, geraniol by GC-MS; format: in vivo, Nicotiana benthamiana; details: 96 h after infiltration; for increase in geraniol accumulation in tobacco leaves: co-expression with GES, in average
Source text: In order to characterize DXS alleles activity, the inventors used Agrobacterium-mediated transient transformation of tobacco (Nicotiana benthamiana), which allows a fast and efficient gene expression in tobacco leaves (Batoko et al., 2000). This approach was already used successfully to characterize genes involved in grapevine secondary metabolism (Schmidlin et al., 2008; Hugueney et al., 2009). MoDXS1, MoDXS2 and GwDXS2 alleles were expressed in tobacco leaves, together with a cDNA encoding the enzyme geraniol synthase (GES) from basilicum (Ocimum basalicum) (Iijima et al., 2004). […] Thus, GC-M5 analyses of tobacco leaves co-expressing GES and DXS alleles allowed an accurate comparison of DXS alleles activity in planta.
Grapevine DXS cDNAs were amplified by PCR using the upstream primer 5′-[…] TACGCTCTCATTTCC-3′ (SEQ ID No11) and the downstream primer 5′-[…]-3′ (SEQ ID No12), and cloned into the pDONR207 Gateway compatible vector (Invitrogen, Carlsbad, Calif.) using Gateway BP clonase (Invitrogen) according to the manufacturer's instructions. DXS cDNAs were sequenced to verify that no mutation had been introduced. For Agrobacterium-mediated transient expression, DXS cDNAs were subsequently transferred into the GATEWAY binary vector pMDC32 (Curtis and Grossniklaus., 2003). Geraniol synthase cDNA from basilicum (Ocimum basilicum) (Iijima et al., 2004) was cloned into the GATEWAY binary vector pMDC83 (Curtis and Grossniklaus., 2003) and expressed as a GFP fusion protein. All constructs were introduced into Agrobacterium tumefaciens strain C58 (pMP90) by electroporation. Nicotiana benthamiana leaves were infiltrated with A. tumefaciens cultures (OD600 0.5) according to Voinnet et al. (2003). Leaf sectors were […] for terpene content 96 h after Agrobacterium infiltration.
For each sampling point, three replicates of terpenol analysis were performed. After weighing, tobacco leaf sectors (about 1 g) were ground under liquid nitrogen and then suspended in 2 mL of ultra-pure water. […]

grape berries = experiment: Terpenol content in grape berry skins as a function of DXS alleles (MO and GW progeny); format: in vivo, Vitis vinifera; details: by DXS genotype in MO and GW progeny, pool of 5 major terpenols
Protocol: Isolation of Free and Bound Monoterpenols by Solid Phase Extraction (SPE)
For each sampling point, three replicates of terpenol analysis were performed. For each replicate, at least 25 berries were used. Seeds were removed and skins separated from mesocarps. After weighing, skins were ground under liquid nitrogen and then suspended in 40 mL of water after addition of 40 mg of sodium sulphite. The supernatant obtained after a 15-min centrifugation (11400 g at 4° C.) was passed through a glass fibre pre-filter and a glass filter. Twenty microliters of a 1 g/L 4-nonanol solution was added as external standard to allow the quantification of the main terpenols. Extraction of terpenols was adapted from Mateo et al. (1997), ethanol being used instead of methanol. The filtrate was passed through a 1 g phase C18 silica-bonded non-polar SPE column (BOND ELUT JR.), previously washed with 5 mL of methanol and 15 mL of ultra-pure water, at a rate of approximately one drop/s. The sample was then divided in two equal subsamples, one for the analysis of free and glycosidically bound monoterpenols and one for the analysis of free terpenols. Total fractions of free and bound monoterpenols were eluted with 4 mL of absolute ethanol. […]

| Molecule | geraniol biosynthesis (tobacco leaves; co-expression with GES in tobacco leaves, versus GES alone) | terpenol content in grape berries (grape berries) | increase in geraniol accumulation in tobacco leaves (tobacco leaves) |
| --- | --- | --- | --- |
| MoDXS1: typical (wild type) DXS allele shared by Vitis vinifera cv Muscat Ottonel and Gewurztraminer (protein, Vitis Vinifera, typical (wild type) DXS allele shared by Vitis vinifera cv Muscat Ottonel and Gewurztraminer) MALCTLSFPAHFSQAAASNPQRLTPQCSHLFLGVDLQCQSQQRSKARKRPNGVCASLSDREEYHSQRPPTPLLDTINYPIHMKNLSVKELKQLADELRSDVVFNVSKTGGHLGSSLGVVELTVALHYVFNAPQDRILWDVGHQSYPHKILTGRRDQMHTMRQTDGLAGFTKRSESEYDCFGTGHSSTTISAGLGMAVGRDLKGKNNNVIAVIGDGAMTAGQAYEAMNNAGYLDSDMIVILNDNKQVSLPTATLDGPIPPVGALSSALSRLQSNRPLRELREVAKGVTKQIGGPMHELAAKVDEYARGMISGSGSTLFEELGLYYIGPVDGHNIDDLVAILKEVKSTKTTGPVLIHVVTEKGRGYPYAEKAADKYHGVTKFDPATGKQFKSSAPTQSYTTYFAEALIAEAEVDKDIVAIHAAMGGGTGLNLFHRRFPTRCFDVGIAEQHAVTFAAGLACEGIKPFCAIYSSFMQRAYDQVVHDVDLQKLPVKFAMDRAGLVGADGPTHCGAFDVAFMACLPNMVVMAPADEAELFHMVATAAAIDDRPSCFRYPRGNGVGVELPPGNKGIPIEVGRGRILIEGERVALLGYGTAVQSCLVASSLLEQHGLRITVADARFCKPLDHALIRSLAKSHEVLITVEEGSIGGFGSHVAQFLALNGLLDGTTKWSPMVLPDRYIDHGAPADQLAMAGLTPSHIAATVFNILGQTREALEIML | substantial increases | extremely low levels of terpenols | – |
| MoDXS2: DXS allele of Vitis vinifera cv Muscat Ottonel with K284→N mutation (protein, Vitis Vinifera, DXS allele of Vitis vinifera cv Muscat Ottonel with K284→N mutation) MALCTLSFPAHFSQAAASNPQRLTPQCSHLFLGVDLQCQSQQRSKARKRPNGVCASLSDREEYHSQRPPTPLLDTINYPIHMKNLSVKELKQLADELRSDVVFNVSKTGGHLGSSLGVVELTVALHYVFNAPQDRILWDVGHQSYPHKILTGRRDQMHTMRQTDGLAGFTKRSESEYDCFGTGHSSTTISAGLGMAVGRDLKGKNNNVIAVIGDGAMTAGQAYEAMNNAGYLDSDMIVILNDNKQVSLPTATLDGPIPPVGALSSALSRLQSNRPLRELREVANGVTKQIGGPMHELAAKVDEYARGMISGSGSTLFEELGLYYIGPVDGHNIDDLVAILKEVKSTKTTGPVLIHVVTEKGRGYPYAEKAADKYHGVTKFDPATGKQFKSSAPTQSYTTYFAEALIAEAEVDKDIVAIHAAMGGGTGLNLFHRRFPTRCFDVGIAEQHAVTFAAGLACEGIKPFCAIYSSFMQRAYDQVVHDVDLQKLPVKFAMDRAGLVGADGPTHCGAFDVAFMACLPNMVVMAPADEAELFHMVATAAAIDDRPSCFRYPRGNGVGIELPPGNKGIPIEVGRGRILIEGERVALLGYGTAVQSCLVASSLLEQHGLRITVADARFCKPLDHALIRSLAKSHEVLITVEEGSIGGFGSHVAQFLALNGLLDGTTKWSPMVLPDRYIDHGAPADQLAMAGLTPSHIAATVFNILGQTREALEIML | – | – | three time increase |
| GwDXS2: DXS allele of Vitis vinifera cv Gewurztraminer with R306→C mutation (protein, Vitis Vinifera, DXS allele of Vitis vinifera cv Gewurztraminer with R306→C mutation) MALCTLSFPAHFSQAAASNPQRLTPQCSHLFLGVDLQCQSQQRSKARKRPNGVCASLSDREEYHSQRPPTPLLDTINYPIHMKNLSVKELKQLADELRSDVVFNVSKTGGHLGSSLGVVELTVALHYVFNAPQDRILWDVGHQSYPHKILTGRRDQMHTMRQTDGLAGFTKRSESEYDCFGTGHSSTTISAGLGMAVGRDLKGKNNNVIAVIGDGAMTAGQAYEAMNNAGYLDSDMIVILNDNKQVSLPTATLDGPIPPVGALSSALSRLQSNRPLRELREVAKGVTKQIGGPMHELAAKVDEYACGMISGSGSTLFEELGLYYIGPVDGHNIDDLVAILKEVKSTKTTGPVLIHVVTEKGRGYPYAEKAADKYHGVTKFDPATGKQFKSSAPTQSYTTYFAEALIAEAEVDKDIVAIHAAMGGGTGLNLFHRRFPTRCFDVGIAEQHAVTFAAGLACEGIKPFCAIYSSFMQRAYDQVVHDVDLQKLPVKFAMDRAGLVGADGPTHCGAFDVAFMACLPNMVVMAPADEAELFHMVATAAAIDDRPSCFRYPRGNGVGVELPPGNKGIPIEVGRGRILIEGERVALLGYGTAVQSCLVASSLLEQHGLRITVADARFCKPLDHALIRSLAKSHEVLITVEEGSIGGFGSHVAQFLALNGLLDGTTKWSPMVLPDRYIDHGAPADQLAMAGLTPSHIAATVFNILGQTREALEIML | – | – | three time increase |
